These results are taken from US20220331453A1 (INDUSTRY UNIVERSITY COOPERATION FOUNDATION HANYANG …, published 2022).

For this experiment, the target named is T1, VEGFR1 (Flt1) on the membrane of HUVECs (human, UniProt P17948 27-1338).
T1 construct: whole, on cells; Endogenous receptor on HUVECs; also called fms-like tyrosine kinase-1
Kind of experiment: fluorescence imaging of HUVECs with dye-conjugated cage. The procedure: HUVECs were spread onto a 48-well plate at 4×10⁴ cells/well and then cultured overnight. The HUVECs were incubated with 50 ng/mL human recombinant rhVEGF₁₆₅ and dye-conjugated fusion protein cage at different concentrations for 15, 30 and 60 minutes at 37° C. The HUVECs were imaged in a […] (Zeiss, Oberkochen, Germany) using FITC.
A maleimide-modified fluorescent dye was conjugated at the thiol of HPC, and the conjugation of the fluorescent dye to the polypeptide was qualitatively identified by SDS-PAGE. The fluorescent dye-conjugated anti-Flt1-HPC4-EBPP[A₁G₄I₁]₆-PEDF 34-mer-EBPP[A₁G₄I₁]₆-HPC5 was visualized by exposure to UV light on SDS-PAGE without gel staining. In FIG. 5 (A) (b), the location of the dye-conjugated polypeptide is compared under UV light with that of a marker in a bright-field mode. The location corresponded to that of the fusion polypeptide on the copper-stained SDS-PAGE gel prior to the dye conjugation (FIG. 5 (A) (a)). The conjugation of the dye to anti-Flt1-HPC4-EBPP[A₁G₄I₁]₆-PEDF 34-mer-EBPP[A₁G₄I₁]₆-HPC5 was confirmed from the fluorescence spectrum. […] HUVECs were spread onto a […] plate and then cultured overnight. The HUVECs were incubated with 1 μM or 10 μM dye-conjugated polypeptide for 15, 30 or 60 minutes. […]

T1 sequence (P17948 27-1338): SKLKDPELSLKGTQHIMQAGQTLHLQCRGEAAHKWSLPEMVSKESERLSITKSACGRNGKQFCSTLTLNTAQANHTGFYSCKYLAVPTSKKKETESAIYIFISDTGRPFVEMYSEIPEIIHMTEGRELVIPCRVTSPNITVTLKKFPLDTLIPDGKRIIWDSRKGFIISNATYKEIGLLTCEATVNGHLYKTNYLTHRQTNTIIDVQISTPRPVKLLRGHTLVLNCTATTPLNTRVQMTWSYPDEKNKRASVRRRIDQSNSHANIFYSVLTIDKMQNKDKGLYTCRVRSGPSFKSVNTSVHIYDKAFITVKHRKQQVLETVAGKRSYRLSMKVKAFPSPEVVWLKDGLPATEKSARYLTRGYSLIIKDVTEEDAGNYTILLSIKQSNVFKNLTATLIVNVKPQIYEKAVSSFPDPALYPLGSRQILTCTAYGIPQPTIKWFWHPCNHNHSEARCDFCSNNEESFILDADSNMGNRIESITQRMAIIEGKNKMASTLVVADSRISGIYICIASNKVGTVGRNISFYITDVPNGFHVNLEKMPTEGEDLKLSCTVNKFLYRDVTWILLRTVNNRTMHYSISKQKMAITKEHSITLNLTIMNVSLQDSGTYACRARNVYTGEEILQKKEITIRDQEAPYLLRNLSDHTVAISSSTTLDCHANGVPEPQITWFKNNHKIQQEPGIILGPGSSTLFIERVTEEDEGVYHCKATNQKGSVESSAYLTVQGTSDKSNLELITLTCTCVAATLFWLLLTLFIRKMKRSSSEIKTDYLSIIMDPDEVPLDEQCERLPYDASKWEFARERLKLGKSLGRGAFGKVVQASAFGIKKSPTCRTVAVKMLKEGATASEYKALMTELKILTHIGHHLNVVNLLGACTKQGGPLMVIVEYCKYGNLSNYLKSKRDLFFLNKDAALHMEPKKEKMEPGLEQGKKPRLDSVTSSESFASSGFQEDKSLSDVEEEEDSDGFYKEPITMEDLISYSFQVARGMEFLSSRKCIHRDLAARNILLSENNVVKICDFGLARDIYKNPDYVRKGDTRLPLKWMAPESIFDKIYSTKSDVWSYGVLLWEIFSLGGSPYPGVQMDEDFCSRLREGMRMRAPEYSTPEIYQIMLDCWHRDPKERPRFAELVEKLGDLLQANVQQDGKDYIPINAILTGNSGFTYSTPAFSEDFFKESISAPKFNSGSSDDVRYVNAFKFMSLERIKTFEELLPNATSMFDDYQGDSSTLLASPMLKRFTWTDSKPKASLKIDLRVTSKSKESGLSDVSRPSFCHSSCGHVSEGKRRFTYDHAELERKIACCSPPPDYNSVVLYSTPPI

B1: fluorescent dye-conjugated anti-Flt1-HPC4-EBPP[A1G4I1]6-PEDF 34-mer-EBPP[A1G4I1]6-HPC5 (designed binder)
chain: GNQWFISSQIRQNYSTDVEAAVNSLVNLYLQASYTYLSLGFYFDRDDVALEGVSHFFRELAEEKREGYERLLKMQNQRGGRALFQDIKKPAEDEWGKTPDAMKAAMALEKKLNQALLDLHALGSARTDPHLCDFLETHFLDEEVKLIKKMGDHLTNLHRLGGVPAGGVPAAGVPAGGVPAGGVPAIGVPAGGVPAGGVPAAGVPAGGVPAGGVPAIGVPAGGVPAGGVPAAGVPAGGVPAGGVPAIGVPAGGVPAGGVPAAGVPAGGVPAGGVPAIGVPAGGVPAGGVPAAGVPAGGVPAGGVPAIGVPAGGVPAGGVPAAGVPAGGVPAGGVPAIGVPAGGDPFFKVPVNKLAAAVSNFGYDLYRVRSSTSPTTNVPAGGVPAAGVPAGGVPAGGVPAIGVPAGGVPAGGVPAAGVPAGGVPAGGVPAIGVPAGGVPAGGVPAAGVPAGGVPAGGVPAIGVPAGGVPAGGVPAAGVPAGGVPAGGVPAIGVPAGGVPAGGVPAAGVPAGGVPAGGVPAIGVPAGGVPAGGVPAAGVPAGGVPAGGVPAIGVPAGGPEAGLGEYLFERLTLKHD
modifications: Alexa Fluor 488 C5 maleimide conjugated at cysteine (thiol of HPC) via thiol-maleimide reaction
notes: also called dye-conjugated fusion protein cage; dye-conjugated polypeptide
In the case of B1, the binding result is listed as “binds”.
